Columns and labels:
[1] = molecular target: WT p53 full length (His-tagged) (UniProt P04637 1-393); assay: pull-down (streptavidin beads, Western blot); DBD pull-down: streptavidin beads with biotinylated oligo, 3 h at 4 C; Figure 1A: 50 ng protein; buffer, salt and pH not in the material; ELISA per R&D kit; settings: protein: recombinant; tags: His; label: 5' biotin; annealed to complementary oligo
[2] = molecular target: WT p53 DBD (UniProt P04637 94-293); assay: as above; settings: protein: recombinant; label: 5' biotin; annealed to complementary oligo
Sequence of WT p53 DBD (P04637 94-293): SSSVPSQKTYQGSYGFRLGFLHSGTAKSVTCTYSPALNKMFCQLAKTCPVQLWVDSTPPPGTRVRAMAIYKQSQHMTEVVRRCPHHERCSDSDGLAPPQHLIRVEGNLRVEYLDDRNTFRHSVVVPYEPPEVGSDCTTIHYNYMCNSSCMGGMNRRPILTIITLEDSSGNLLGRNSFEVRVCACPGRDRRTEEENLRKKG

Sequence of WT p53 full length (His-tagged) (P04637 whole entry): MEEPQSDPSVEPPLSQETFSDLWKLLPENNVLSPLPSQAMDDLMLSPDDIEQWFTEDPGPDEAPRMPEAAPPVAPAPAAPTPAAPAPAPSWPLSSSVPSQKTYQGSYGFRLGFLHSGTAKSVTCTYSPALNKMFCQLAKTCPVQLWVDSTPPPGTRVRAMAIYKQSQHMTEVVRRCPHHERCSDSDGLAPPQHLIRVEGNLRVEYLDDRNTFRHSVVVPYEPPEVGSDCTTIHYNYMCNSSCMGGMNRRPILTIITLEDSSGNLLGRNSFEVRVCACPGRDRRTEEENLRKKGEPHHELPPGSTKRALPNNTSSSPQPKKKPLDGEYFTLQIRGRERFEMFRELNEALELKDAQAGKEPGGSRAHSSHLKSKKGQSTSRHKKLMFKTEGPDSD

B1: p53RE oligo (dsDNA)
DNA 1: CTGCTGAAGCTTCGAATTCCTAGACATGCCCAGACATGTCCTACTGCTGCTGCTGCTGCTGCTGCGAACATGTCCCAACATGTTGCTGCTGCTGCTGCTG
DNA 2: CAGCAGCAGCAGCAGCAACATGTTGGGACATGTTCGCAGCAGCAGCAGCAGCAGCAGTAGGACATGTCTGGGCATGTCTAGGAATTCGAAGCTTCAGCAG
[1]
  binding result: binds
[2]
  binding result: binds
